Bridges are numbered along the chain shown (N, C = ends). [ ]: non-standard residue; d: D form. The star is where a group is joined. 3Pal = N[C@@H](Cc1cccnc1)C(=O)O; Myristoyl = CCCCCCCCCCCCCC(=O)*; pGlu = O=C1CC[C@@H](C(=O)O)N1; d(hCys) = N[C@H](CCS)C(=O)O; hCys = N[C@@H](CCS)C(=O)O; Nle = CCCC[C@H](N)C(=O)O; AEEA = NCCOCCOCC(=O)O
T1: human APJ receptor (hAPJ) (human, UniProt P35414 1-380)
T1 sequence (looked up): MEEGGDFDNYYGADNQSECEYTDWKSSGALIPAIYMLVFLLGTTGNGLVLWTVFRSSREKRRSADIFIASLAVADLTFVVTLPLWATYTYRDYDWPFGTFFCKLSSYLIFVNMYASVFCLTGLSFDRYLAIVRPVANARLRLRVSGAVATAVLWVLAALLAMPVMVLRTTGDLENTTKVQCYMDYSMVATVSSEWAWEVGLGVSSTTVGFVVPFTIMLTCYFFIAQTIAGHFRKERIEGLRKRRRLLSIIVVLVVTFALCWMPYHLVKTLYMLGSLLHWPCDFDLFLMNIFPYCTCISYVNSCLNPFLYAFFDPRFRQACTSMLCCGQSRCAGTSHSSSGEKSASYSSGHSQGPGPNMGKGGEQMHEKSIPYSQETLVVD

B1: Example 44: pE-R-P-R-L-C-H-K-L-P-Nle-C-F-OH (peptide)
peptide: [pGlu]RPRLCHKLP[Nle]CF-OH
modifications: disulfide 6-12
SMILES: CCCC[C@@H]1NC(=O)[C@@H]2CCCN2C(=O)[C@H](CC(C)C)NC(=O)[C@H](CCCCN)NC(=O)[C@H](Cc2c[nH]cn2)NC(=O)[C@@H](NC(=O)[C@H](CC(C)C)NC(=O)[C@H](CCCNC(=N)N)NC(=O)[C@@H]2CCCN2C(=O)[C@H](CCCNC(=N)N)NC(=O)[C@@H]2CCC(=O)N2)CSSC[C@@H](C(=O)N[C@@H](Cc2ccccc2)C(=O)O)NC1=O
B2: Example 54: pE-R-P-R-L-C-H-K-G-P-Nle-(D-hC)-F-OH (peptide)
peptide: [pGlu]RPRLCHKGP[Nle][d(hCys)]F-OH
modifications: disulfide 6-12
SMILES: CCCC[C@@H]1NC(=O)[C@@H]2CCCN2C(=O)CNC(=O)[C@H](CCCCN)NC(=O)[C@H](Cc2c[nH]cn2)NC(=O)[C@@H](NC(=O)[C@H](CC(C)C)NC(=O)[C@H](CCCNC(=N)N)NC(=O)[C@@H]2CCCN2C(=O)[C@H](CCCNC(=N)N)NC(=O)[C@@H]2CCC(=O)N2)CSSCC[C@H](C(=O)N[C@@H](Cc2ccccc2)C(=O)O)NC1=O
B3: Example 55: pE-R-P-R-L-(D-hC)-H-K-G-P-Nle-(D-hC)-F-OH (peptide)
peptide: [pGlu]RPRL[d(hCys)]HKGP[Nle][d(hCys)]F-OH
modifications: disulfide 6-12
SMILES: CCCC[C@@H]1NC(=O)[C@@H]2CCCN2C(=O)CNC(=O)[C@H](CCCCN)NC(=O)[C@H](Cc2c[nH]cn2)NC(=O)[C@H](NC(=O)[C@H](CC(C)C)NC(=O)[C@H](CCCNC(=N)N)NC(=O)[C@@H]2CCCN2C(=O)[C@H](CCCNC(=N)N)NC(=O)[C@@H]2CCC(=O)N2)CCSSCC[C@H](C(=O)N[C@@H](Cc2ccccc2)C(=O)O)NC1=O
B4: Example 5: pE-R-P-R-L-K-F-K-G-P-Nle-F (peptide)
peptide: [pGlu]RPRLKFKGP[Nle]F
modifications: lactam 6-C
B5: Example 48: pE-R-P-R-L-C-H-K-G-P-Nle-C-H-OH (peptide)
peptide: [pGlu]RPRLCHKGP[Nle]CH-OH
modifications: disulfide 6-12
SMILES: CCCC[C@@H]1NC(=O)[C@@H]2CCCN2C(=O)CNC(=O)[C@H](CCCCN)NC(=O)[C@H](Cc2c[nH]cn2)NC(=O)[C@@H](NC(=O)[C@H](CC(C)C)NC(=O)[C@H](CCCNC(=N)N)NC(=O)[C@@H]2CCCN2C(=O)[C@H](CCCNC(=N)N)NC(=O)[C@@H]2CCC(=O)N2)CSSC[C@@H](C(=O)N[C@@H](Cc2c[nH]cn2)C(=O)O)NC1=O
B6: Example 47: pE-R-P-R-L-C-H-K-G-P-(3-PyA)-C-F-OH (peptide)
peptide: [pGlu]RPRLCHKGP[3Pal]CF-OH
modifications: disulfide 6-12
SMILES: CC(C)C[C@H](NC(=O)[C@H](CCCNC(=N)N)NC(=O)[C@@H]1CCCN1C(=O)[C@H](CCCNC(=N)N)NC(=O)[C@@H]1CCC(=O)N1)C(=O)N[C@H]1CSSC[C@@H](C(=O)N[C@@H](Cc2ccccc2)C(=O)O)NC(=O)[C@H](Cc2cccnc2)NC(=O)[C@@H]2CCCN2C(=O)CNC(=O)[C@H](CCCCN)NC(=O)[C@H](Cc2c[nH]cn2)NC1=O
B7: Example 46: pE-R-P-R-L-C-H-K-G-(Pipecolic acid)-Nle-C-F-OH (peptide)
peptide: [pGlu]RPRLCHKG[Pipecolic acid][Nle]CF-OH
modifications: disulfide 6-12
B8: Example 49: pE-R-P-R-L-C-H-K-G-P-Nle-C-E-OH (peptide)
peptide: [pGlu]RPRLCHKGP[Nle]CE-OH
modifications: disulfide 6-12
SMILES: CCCC[C@@H]1NC(=O)[C@@H]2CCCN2C(=O)CNC(=O)[C@H](CCCCN)NC(=O)[C@H](Cc2c[nH]cn2)NC(=O)[C@@H](NC(=O)[C@H](CC(C)C)NC(=O)[C@H](CCCNC(=N)N)NC(=O)[C@@H]2CCCN2C(=O)[C@H](CCCNC(=N)N)NC(=O)[C@@H]2CCC(=O)N2)CSSC[C@@H](C(=O)N[C@@H](CCC(=O)O)C(=O)O)NC1=O
B9: Example 52: pE-R-P-R-L-hC-H-K-G-P-Nle-hC-F-OH (peptide)
peptide: [pGlu]RPRL[hCys]HKGP[Nle][hCys]F-OH
modifications: disulfide 6-12
SMILES: CCCC[C@@H]1NC(=O)[C@@H]2CCCN2C(=O)CNC(=O)[C@H](CCCCN)NC(=O)[C@H](Cc2c[nH]cn2)NC(=O)[C@@H](NC(=O)[C@H](CC(C)C)NC(=O)[C@H](CCCNC(=N)N)NC(=O)[C@@H]2CCCN2C(=O)[C@H](CCCNC(=N)N)NC(=O)[C@@H]2CCC(=O)N2)CCSSCC[C@@H](C(=O)N[C@@H](Cc2ccccc2)C(=O)O)NC1=O
B10: Example 45: pE-R-P-R-L-C-H-K-R-P-Nle-C-F-OH (peptide)
peptide: [pGlu]RPRLCHKRP[Nle]CF-OH
modifications: disulfide 6-12
SMILES: CCCC[C@@H]1NC(=O)[C@@H]2CCCN2C(=O)[C@H](CCCNC(=N)N)NC(=O)[C@H](CCCCN)NC(=O)[C@H](Cc2c[nH]cn2)NC(=O)[C@@H](NC(=O)[C@H](CC(C)C)NC(=O)[C@H](CCCNC(=N)N)NC(=O)[C@@H]2CCCN2C(=O)[C@H](CCCNC(=N)N)NC(=O)[C@@H]2CCC(=O)N2)CSSC[C@@H](C(=O)N[C@@H](Cc2ccccc2)C(=O)O)NC1=O
B11: Example 56: pE-R-P-R-L-C-H-K-G-P-Nle-c-F-OH (peptide)
peptide: [pGlu]RPRLCHKGP[Nle][dC]F-OH
modifications: disulfide 6-12
SMILES: CCCC[C@@H]1NC(=O)[C@@H]2CCCN2C(=O)CNC(=O)[C@H](CCCCN)NC(=O)[C@H](Cc2c[nH]cn2)NC(=O)[C@@H](NC(=O)[C@H](CC(C)C)NC(=O)[C@H](CCCNC(=N)N)NC(=O)[C@@H]2CCCN2C(=O)[C@H](CCCNC(=N)N)NC(=O)[C@@H]2CCC(=O)N2)CSSC[C@H](C(=O)N[C@@H](Cc2ccccc2)C(=O)O)NC1=O
B12: Example 43: pE-R-P-R-L-C-E-K-G-P-Nle-C-F-OH (peptide)
peptide: [pGlu]RPRLCEKGP[Nle]CF-OH
modifications: disulfide 6-12
SMILES: CCCC[C@@H]1NC(=O)[C@@H]2CCCN2C(=O)CNC(=O)[C@H](CCCCN)NC(=O)[C@H](CCC(=O)O)NC(=O)[C@@H](NC(=O)[C@H](CC(C)C)NC(=O)[C@H](CCCNC(=N)N)NC(=O)[C@@H]2CCCN2C(=O)[C@H](CCCNC(=N)N)NC(=O)[C@@H]2CCC(=O)N2)CSSC[C@@H](C(=O)N[C@@H](Cc2ccccc2)C(=O)O)NC1=O
B13: Example 58: Myristoyl-O2Oc-O2Oc-Q-R-P-R-L-C-H-K-G-P-Nle-C-f-OH (peptide)
peptide: Myristoyl-[AEEA][AEEA]QRPRLCHKGP[Nle]C[dF]-OH
modifications: disulfide 8-14
SMILES: CCCCCCCCCCCCCC(=O)NCCOCCOCC(=O)NCCOCCOCC(=O)N[C@@H](CCC(N)=O)C(=O)N[C@@H](CCCNC(=N)N)C(=O)N1CCC[C@H]1C(=O)N[C@@H](CCCNC(=N)N)C(=O)N[C@@H](CC(C)C)C(=O)N[C@H]1CSSC[C@@H](C(=O)N[C@H](Cc2ccccc2)C(=O)O)NC(=O)[C@H](CCCC)NC(=O)[C@@H]2CCCN2C(=O)CNC(=O)[C@H](CCCCN)NC(=O)[C@H](Cc2c[nH]cn2)NC1=O
B14: Example 50: pE-R-P-R-L-C-H-K-G-P-Nle-C-OH (peptide)
peptide: [pGlu]RPRLCHKGP[Nle]C-OH
modifications: disulfide 6-12
SMILES: CCCC[C@@H]1NC(=O)[C@@H]2CCCN2C(=O)CNC(=O)[C@H](CCCCN)NC(=O)[C@H](Cc2c[nH]cn2)NC(=O)[C@@H](NC(=O)[C@H](CC(C)C)NC(=O)[C@H](CCCNC(=N)N)NC(=O)[C@@H]2CCCN2C(=O)[C@H](CCCNC(=N)N)NC(=O)[C@@H]2CCC(=O)N2)CSSC[C@@H](C(=O)O)NC1=O
B15: Example 53: pE-R-P-R-L-c-H-K-G-P-Nle-C-F-OH (peptide)
peptide: [pGlu]RPRL[dC]HKGP[Nle]CF-OH
modifications: disulfide 6-12
SMILES: CCCC[C@@H]1NC(=O)[C@@H]2CCCN2C(=O)CNC(=O)[C@H](CCCCN)NC(=O)[C@H](Cc2c[nH]cn2)NC(=O)[C@H](NC(=O)[C@H](CC(C)C)NC(=O)[C@H](CCCNC(=N)N)NC(=O)[C@@H]2CCCN2C(=O)[C@H](CCCNC(=N)N)NC(=O)[C@@H]2CCC(=O)N2)CSSC[C@@H](C(=O)N[C@@H](Cc2ccccc2)C(=O)O)NC1=O
B16: Example 59: Myristoyl-O2Oc-O2Oc-O2Oc-Q-R-P-R-L-C-H-K-G-P-Nle-C-f-OH (peptide)
peptide: Myristoyl-[AEEA][AEEA][AEEA]QRPRLCHKGP[Nle]C[dF]-OH
modifications: disulfide 9-15
SMILES: CCCCCCCCCCCCCC(=O)NCCOCCOCC(=O)NCCOCCOCC(=O)NCCOCCOCC(=O)N[C@@H](CCC(N)=O)C(=O)N[C@@H](CCCNC(=N)N)C(=O)N1CCC[C@H]1C(=O)N[C@@H](CCCNC(=N)N)C(=O)N[C@@H](CC(C)C)C(=O)N[C@H]1CSSC[C@@H](C(=O)N[C@H](Cc2ccccc2)C(=O)O)NC(=O)[C@H](CCCC)NC(=O)[C@@H]2CCCN2C(=O)CNC(=O)[C@H](CCCCN)NC(=O)[C@H](Cc2c[nH]cn2)NC1=O
B17: Example 51: pE-R-P-R-L-C-H-K-G-P-Nle-hC-F-OH (peptide)
peptide: [pGlu]RPRLCHKGP[Nle][hCys]F-OH
modifications: disulfide 6-12
SMILES: CCCC[C@@H]1NC(=O)[C@@H]2CCCN2C(=O)CNC(=O)[C@H](CCCCN)NC(=O)[C@H](Cc2c[nH]cn2)NC(=O)[C@@H](NC(=O)[C@H](CC(C)C)NC(=O)[C@H](CCCNC(=N)N)NC(=O)[C@@H]2CCCN2C(=O)[C@H](CCCNC(=N)N)NC(=O)[C@@H]2CCC(=O)N2)CSSCC[C@@H](C(=O)N[C@@H](Cc2ccccc2)C(=O)O)NC1=O
B18: Example 57: pE-R-P-R-L-c-H-K-G-P-Nle-c-F-OH (peptide)
peptide: [pGlu]RPRL[dC]HKGP[Nle][dC]F-OH
modifications: disulfide 6-12
SMILES: CCCC[C@@H]1NC(=O)[C@@H]2CCCN2C(=O)CNC(=O)[C@H](CCCCN)NC(=O)[C@H](Cc2c[nH]cn2)NC(=O)[C@H](NC(=O)[C@H](CC(C)C)NC(=O)[C@H](CCCNC(=N)N)NC(=O)[C@@H]2CCCN2C(=O)[C@H](CCCNC(=N)N)NC(=O)[C@@H]2CCC(=O)N2)CSSC[C@H](C(=O)N[C@@H](Cc2ccccc2)C(=O)O)NC1=O

biological target: T1, human APJ receptor (hAPJ); experiment: cell-based or functional assay

hAPJ Ca2+ Flux EC50 [nM]	Binder
5.94	B1
6.7	B2
8.16	B3
21.2	B4
4.1	B5
2.41	B6
3.87	B7
34.2	B8
53.9	B9
6.55	B10
1.12	B11
4.14	B12
13.1	B13
1.92	B14
1.07	B15
10	B16
1.09	B17
2.01	B18
